This series is described as follows: yeast display, Sf9 membrane polyspecificity reagent, FACS + sequencing; frameworks hold sequencing errors. In outline: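 A nanobody's polyreactivity label depends on the gate it was sorted from. Yeast display cells were stained with 10% biotinylated, detergent-solubilized Sf9 membrane reagent for 1 hour at 4 °C, enriched on streptavidin microbeads and sorted by FACS. The low and high (top ~1%) gates were set on anti-HA fluorescence for expression and streptavidin fluorescence for reagent binding.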
In the case of “QVQLVESGGGLVQAGGSLRLSCAASGSILGYYVMGWYRQAPGKERELVAAISWSSGSTYYADSVKGRFTISRDNAKNTVYLQMNSLKPEDTAVYYCNASNVYFWFVTLEFDYWGQGTQVTVSS”, the “polyreactivity (PSR sort gate)” value is given as “low polyreactivity”.
For “QVQLVESGGGLVQAGGSLRLSCAASGSIFFYYAMGWYRQAPGKERELVAAIRSGTSTNYADSVKGRFTISRDNAKNTVYLQMNSLKPEDTAVYYCAARFPGGGYGMDYWGQGTKVTVSS” the value was “low polyreactivity”; for “QVQPQESAGGLVQAGGSLLQSSAASAYIFPYYSMGWYRQAPGKERGLVACIAAGTTTNYADSVKGRFTISRDNAKNTVYLQMKSLKPEDAAVYYCAALKAFNTGHWYWGQGTQVTVSS”, “low polyreactivity”.
For “QVQLVGSGGGLVQAGSSLRLTCAASGLIFTYYAMGWYRQAPGKEREFVAVIDSSGDSTNYADSVKGRFTISRDNAKNTVYLQMNSLKPEDTAVYYCNAYNWSYIYFPFVQEYRTYDYWGQGTQVTVSS” the value was “low polyreactivity”; for “QVQLVESGGGLVQAGGSLRLSCAASGFIFRKYAMGWYRQAPGKERELVAAITNGGSTYADSVKGRFTISRDNAKNTVYLQMNSLKPEDTAVYYCNARYRPRQRPEGGYWGQGTQVTVSS”, “high polyreactivity”.
For “QVQLVESGGGLVQAGGSLRLSCAASGFIFHDNAMGWYRQAPGKERELVAAISRSGGRTYYADSVKGRFTISRDNAKNTVYLQMNSLKPEDTAVYYCAAVPPPGGLDYWGQGTQVTVSS” the value was “high polyreactivity”.
Consider “QVQLQGSGGGLVQAGGSLRLSCAASGNIFDADIMGWYRQAPGKESELVASITDGGSTNYADSVKGRFTISRDNAKNTVYLQMNSLKQEDTAVYYCAAIAYPDIPTYFDYDSACFYWSQGTQVTVSS”, for which the “polyreactivity (PSR sort gate)” value was “high polyreactivity”.
Take “QVQLVESGGGLVQAGGSLRLSCAASGFIFGTYAMGWYRQAPGKEREFVAAITTSGSSTRYADSVKGRFTISRDNAKNTVYLQMNSLKPEDTAVYYCAARNRTFFQPTYYYWGQGTQVTVSS”: the “polyreactivity (PSR sort gate)” value is given as “high polyreactivity”.
Regarding “QVQLVESGGGLVQAGGSLRLSCAASGRILDANDMGWYRQAPGKERELVAGINSGGSTYYADSVKGRFTISRDNAKNTVYLQMNSLKPEDTAVYYCAAGGVSAKYDYWGQGTKVTVSS”, the “polyreactivity (PSR sort gate)” value is “low polyreactivity”.
For “QVQLQESGGGLVRAGGSLRLSCAASGYISTSIAMGWYRQAPGKERELVASFGRGAITNYADSVKGFTISRDNGKNSVYLQMNSLKPEDTAVYYCAVYHGDRGYYSYWGQGTQVNVSS” the value was “low polyreactivity”; for “QVQIVESGGCLVQAGGSLRLSWAASGGIFSTNAMGWYRQAPGKERELVAAISRRGGSTYYADSVKGRFTISRDNAKNTGYLQMNSLKPEDTAVYYCNKYLRLFSYGRGYDYWGQGTQVTVSS”, “high polyreactivity”; for “QVQLVESGGGLVQAGGSLRLSCAASGRNFAWYAMGWYRQAPGKEREFVAAITYRAARTYYADSVKGRFTISRDNAKNTVYLQMNSLKPEDTAVYYCNAVGFDQPRYYYWGQGTQVTVSS”, “high polyreactivity”.
On to “QVQLVESGGGLVQAGGSLRLSCAASGSIYAYYAMGWYRQAPGKERELVATISGGGVGTYYADSVKGRFTISRDNAKNSVYLQMNSLKPEDTAVYYCAADGAQAVIYGDRIEMDYWGQGTQVTVSS”, for which the “polyreactivity (PSR sort gate)” value is “low polyreactivity”.
With “QVQLVESGGGLVQAGGSLRLSCAASGSIFDLYDMGWYRQAPGKERELVADISFSGGSTFYADSVKGRFTISRDNAKNTVYLQMNSLKPEDTAVYYCAADAALITDYGWADMYYWGQGTQVTVSS”, the “polyreactivity (PSR sort gate)” value was “low polyreactivity”.
As to “QVQLVESGGGLDQARGSLRLSCAASGLTFVEYAMGWYRQAPGKESELVADITISGGRTYYADSVKGRFTISRDNAKYTVYLQMNSLKPEDTAVYYCNAQSYLGVTHRGYIKNGYDYWGQGTQVTVSS”, the “polyreactivity (PSR sort gate)” value is given as “low polyreactivity”.
For the sequence “QVQLVESGGGLVQAGGSLRLSCAASGFTFVPYARGWYRQAPGKDREWVAAISRRGGSTYYADSVKGRFTISRDYAKNTVYLQMNSLKPEDTAVYYCAKDGPGGGTRIYDYWGQGTQVTVSS”, the “polyreactivity (PSR sort gate)” value is listed as “high polyreactivity”.
For “QVQLLESGGGLFQTGGSLRLSCAASGRTFWNYAKGWYRQAPGKERELVAVIRFSDGSTYYADSVKGRFTISRDNAKNTVYLQMNSLKPQDTAVYYSAAKGPRRWGSGFDYWGQGTQVTVSS” the value was “low polyreactivity”; for “QVHLVEAGGGLVQAGGSRRLSCAASGGIFTDYTMGWYRQAPGKETELVAAITWTGGSTYYADSVKGRFTISRDNAKNTVYLQMNSLKPEDTAVYDCAADDYWVNLDYWGQGTQVTVSS”, “low polyreactivity”.
In the case of “QVQLVESGGGLVQAGGSLRLSCAASGFIFLENDMGWYRQAPGKERELVASINSGSDTNYADSVKGRFTISRDNAKNTVYLQMNSLKPEDTAVYYCNASYNGVPARYDYWGQGTQVTVSS”, the “polyreactivity (PSR sort gate)” value was “low polyreactivity”.
Take “QVQLVESGGGLVQAGGSLRLSCAASGLILHINTMGWYRQAPGKERELVAAISWSGDSTYYSDSVKGRFTISRDNAKNTVYLQKNSLKPDDSAVYYGAADYWYFYTPYSYEYGYWGQGTQVTVSS”: the “polyreactivity (PSR sort gate)” value is on record as “high polyreactivity”.
Consider “QVQLVESGGGLVQAGGSLRLRCAASGRTFRTYTMGWYRKAPGKERELVAAISYSGGSTYYADSVKGRFTISRDNAKNTVYLQMNSLKPEDTAVYYCAIRPYPYKYDYWGQGTQVTVSS”, for which the “polyreactivity (PSR sort gate)” value is “high polyreactivity”.
For “QVQLVESGGCLVQAGGSLRLSCAASGRTFAWYAMGWYRQAPGKERELVAAISSGGSTYYADSVKGRFTISRDNAKNTVYLQMDSLKPEDTAVYYCAAEWHYIYAYDYWGQGTQVTVSS” the value was “low polyreactivity”; for “QVQLVESGGGLVQAGGSLRLSCAASGRIFPYYAMGWSRQAPGKERELVAAISLSGGSTYYADSVKGRFTISRDNAKNTVYLQMNSLKPEDTAVYYCNAVASTYGYYWYPGLGYDYWGQGTQVTVSS”, “low polyreactivity”.
As for “QVHLVESGGGLVQAGGSLSLSCDASGRTFYENAMGWYRQAPGKERELVAAISQSSGSTYYADSVKGRFTISRDNAKNTVYLQMNSLKPEDTAVYYCAAVQGANYYNEFDYWGQGTQVTVSS”, the “polyreactivity (PSR sort gate)” value was “high polyreactivity”.
Turning to “QVQLVESGGGLVQAGGSLRLSCAASGRIFSTNAMGWYRQAPGKEREFVAAISWIGGSTYYADSVKGRFTISRDNAKNTVYLQMNSLKPEDTAVYYCAAGVYDDYPWSYDIFNLYDYWGQGTQVTVSS”, the “polyreactivity (PSR sort gate)” value was “low polyreactivity”.
For “QVHLVESGGGLVQAGASHRLSCAASGSISKSYAMGWYRQAPGKERELVAAISWRGGSTYADSVKGRFTISRDNAKNTVYLQMNSLKPEDTAVYYCAATNYGTFWVGQSERYDYWGQGTQVNVSS” the value was “low polyreactivity”.
For “QVQLVESGGGLVQAGGSLRLSCADSGRIFSPNAMGWYRQAPGKETELVASISSAGSTNYADSVKGRFTISRDNAKNTVYLQMNSLKPEDTAFYYCAADYYGYWLSVHAWGAVTFDYWGQGTQVTVSS” the value was “low polyreactivity”; for “QVQLVDSGGGLVQAGGSLSLSCAASGSILRYYAMVWYRQAPGKERELVAAISRSGGSTYYADSVKGRVTISGDNAKNKVYLLMNRLKPEDTAVYYCANSDFGHHVTGFGYWGQGTQVTVSS”, “low polyreactivity”; for “QVQLVESGGGLVQAGGSLRLSCAASGLTFPYYDMGWYRQAPGKERELVATITISGRTNYADSVKGRFTISRDNAKNTVYLQMNSLKPEDTAVYYCNARYRGRVYDRFGYWGQGTQVTVSS”, “high polyreactivity”.
With “QVQLVESGGGLVQAGGSLRLSCAASGLTFNYYAMGWYRQAPGKERDLVAASTSSGSSTYYADSVKGRFTISRDNAKNTVSLQMNSLKAEDTAVYYCAVSRCSFYWLVDYWGQGTQVTVSS”, the “polyreactivity (PSR sort gate)” value is reported as “high polyreactivity”.
In the case of “QVQLVESGGGLVQAGGSLRLSCAASGGTFGYNTLGWYRQAPGKERELVAAITGSGGRTYYADSVKGRFTISRDNAKNTVYLQMNSLKPEDTAVYYCNALTYPDYGYWGQGTQVTVSS”, the “polyreactivity (PSR sort gate)” value is “low polyreactivity”.
Regarding “QVQVVESGGGLVQAGGSLRLSCAASGSIVSHYAMGWYRQAPGKERELVAGISRRGGRTYYADSVKGRFTISRDNAKNTVYLQMNSLKPEDTAVYYCAALRSSSFGYWGQGTQVTVSS”, the “polyreactivity (PSR sort gate)” value was “high polyreactivity”.
As for “QVQLVESGGGLVQAGGSLRLSCAASGFTFRYYTMGWYRQAPGKETELVAAINTSGAGTYYADSVKGRFTISRDNAKNTVYLQMNSLKPEDTAVYYCAATWYGLDYNYWGQGTQVTVSS”, the “polyreactivity (PSR sort gate)” value is “high polyreactivity”.
In the case of “QVQLVDSGGGLVQAGGSLRLSCAASGSNITRKAMGWYRQAPGKERELVAAIRKIGGRTYYADSVKGRFTISRDNAKNTVYLQMNSLKPEDTAVYYCAAGGSYYRDDYWGQGTQVTVSS”, the “polyreactivity (PSR sort gate)” value is “low polyreactivity”.
Turning to “QVQLVESGGGLVQAGGSLRLSCAASGRILDFNAMGWYRQAPGKERELVAAINNSGGSTYYADSVKGRFTISRDNAKNTVYLQMNSLKPEDTAVYYCARYAIWKRGYWGQGTQVNVSS”, the “polyreactivity (PSR sort gate)” value is reported as “low polyreactivity”.
Turning to “QVQLGESGGGLVQAGGSLRLSCAASGFTFVHNAMGWYRQAPGKERELVAAISSSGGRTYYADSVKGRFTISRDNAKNTVYLQMNSLKPDDTAVYYCATVNRYGPSYGYWGQGTHVTVSS”, the “polyreactivity (PSR sort gate)” value is “high polyreactivity”.
Take “QVQLVESGGGLVQAGGSLRLSCAASGIIFKTYAKGWYRPAPAKERELVAAISRRGGSTYYADSVNGRFTISRDNAKNTVYLQMNSLKPEDTAVYYCAAEYGYVIAYTTRAFYYWGHGTQVTVSS”: the “polyreactivity (PSR sort gate)” value is recorded as “high polyreactivity”.
Take “QVQLVESGGGLVQAGGSLRLSCAASGFIFGRNAMGWYRQAPGKEREFVAAITRIGGNTYYADSVKGRFTISRDNAKNTVYLQMNSLKPEDTAVYYCAARLSYFHAYGFYWGQGTQVTVSS”: the “polyreactivity (PSR sort gate)” value is on record as “high polyreactivity”.
Turning to “QVQLVESGGGLVQAGGSLRLSCAASGSIFIFNAMGWYRQAPGKEREFVARIRRDSSTYYADSVKGRFTISRDNAKNTVYLLMNSLKPEDTAVYYCAAKRVYRRVELNSWGQGTQVTVSS”, the “polyreactivity (PSR sort gate)” value was “low polyreactivity”.
“QVQLVESGGGLVQAGGSLRLSSAASGFTFRAYTMGWYRQAPGKERELVAAISWSGSSTYYADSVKGRFTISRDTAKNTVYLQMNSLKPEDTAVYYCAARHWRRWFPYDYWGQGTQVTVSS”: the “polyreactivity (PSR sort gate)” value was “high polyreactivity”.
As for “QVQLVESGGGLVHAGGSLRLSCAASGGTFDVNAMGWYRQAPGKERELVATISGGGSTNYADSVNGRFTISRDNAKNSVYLQINSLKPEDTAVYYCAAESEPIRNRERDYWGQGTQVSVSS”, the “polyreactivity (PSR sort gate)” value is reported as “low polyreactivity”.

For the origin of these results see the nanobody polyreactivity screen of Harvey et al. (2022).
